Where a chain is given by its changes, count along the chain named. One block for each binder: values may come before it. Starred links: 1 amine or outer side, 2 acyl side, 3 side chain; linkers in the order of their positions; H or OH if unused. Non-standard residues stand in square brackets, D forms with d. Groups on a side chain read outwards from the residue. No end group written: not given here. *: point of attachment. C20 diacid = O=C(O)CCCCCCCCCCCCCCCCCCC(=O)*; C18 diacid = O=C(O)CCCCCCCCCCCCCCCCC(=O)*; γGlu = O=C(O)[C@H](CCC(=O)[*:2])N[*:1]; εLys = N[C@@H](CCCCN[*:1])C(=O)[*:2]; Aib = CC(C)(N)C(=O)O
Experiments:
Assay in all cases: cell-based or functional assay
[1] = target: human GLP-1 receptor (human, UniProt P43220 24-463)
[2] = target: T1, human GIP receptor (human, UniProt P48546 22-466)
T1 sequence (looked up): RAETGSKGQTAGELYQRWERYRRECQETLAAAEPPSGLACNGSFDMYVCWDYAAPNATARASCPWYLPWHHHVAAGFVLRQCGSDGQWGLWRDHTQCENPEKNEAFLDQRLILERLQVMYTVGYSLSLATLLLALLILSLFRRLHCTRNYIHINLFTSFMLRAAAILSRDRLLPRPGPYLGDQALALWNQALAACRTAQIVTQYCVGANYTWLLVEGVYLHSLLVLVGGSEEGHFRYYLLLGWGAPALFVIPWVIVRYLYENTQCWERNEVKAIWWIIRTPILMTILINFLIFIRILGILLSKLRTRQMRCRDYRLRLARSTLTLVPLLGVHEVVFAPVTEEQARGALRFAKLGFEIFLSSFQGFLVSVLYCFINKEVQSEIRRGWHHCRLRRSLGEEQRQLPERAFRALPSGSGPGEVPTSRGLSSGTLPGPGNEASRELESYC

[3] = target: T2, human neuropeptide Y2 (NPY2) receptor (human, UniProt P49146 1-381)
T2 sequence (looked up): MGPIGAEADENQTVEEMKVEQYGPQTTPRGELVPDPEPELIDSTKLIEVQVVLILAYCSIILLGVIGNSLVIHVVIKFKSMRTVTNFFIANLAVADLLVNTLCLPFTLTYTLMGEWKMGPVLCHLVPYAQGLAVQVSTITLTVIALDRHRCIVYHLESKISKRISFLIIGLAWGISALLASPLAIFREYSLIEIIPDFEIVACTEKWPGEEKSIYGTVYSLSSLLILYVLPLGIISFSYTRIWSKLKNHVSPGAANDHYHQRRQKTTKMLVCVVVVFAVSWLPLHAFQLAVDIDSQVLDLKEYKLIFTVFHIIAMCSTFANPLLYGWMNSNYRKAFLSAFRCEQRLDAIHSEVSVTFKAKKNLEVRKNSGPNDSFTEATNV

- EC50, CreLuc assay, 0.5% hP [1]: 0.3 nM
- EC50, CreLuc assay, 100% hP [1]: 22.2 nM
- EC50, CreLuc assay, 0.5% hP [2]: 0.28 nM
- EC50, CreLuc assay, 100% hP [2]: 2.62 nM
- EC50, CreLuc assay, 0.5% hP [3]: 16.2 nM
- EC50, CreLuc assay, 100% hP [3]: 67.2 nM
Binder: Y[Aib]EGTFTSDYSI[Aib]LEKQAQ[Aib]AFVEWLIK([εLys-γGlu-γGlu-γGlu-γGlu-γGlu-C20 diacid])GGPESPASLRHYYNWLTRQRY-NH2 (also: TFA salt) [Compound 70]

- EC50, CreLuc assay, 0.5% hP [1]: 0.29 nM
- EC50, CreLuc assay, 100% hP [1]: 11.2 nM
- EC50, CreLuc assay, 0.5% hP [2]: 0.18 nM
- EC50, CreLuc assay, 100% hP [2]: 2.37 nM
- EC50, CreLuc assay, 0.5% hP [3]: 17 nM
- EC50, CreLuc assay, 100% hP [3]: 95.3 nM
Binder: Y[Aib]EGTFTSDYSI[Aib]LEKQAQ[Aib]AFVEWLIKGGPESPASLRHYYNWLTRQRY-NH2 (not fully specified (residue 28); also: TFA salt) [Compound 64]

- EC50, CreLuc assay, 0.5% hP [1]: 0.08 nM
- EC50, CreLuc assay, 100% hP [1]: 1.69 nM
- EC50, CreLuc assay, 0.5% hP [2]: 0.33 nM
- EC50, CreLuc assay, 100% hP [2]: 0.35 nM
- EC50, CreLuc assay, 0.5% hP [3]: 7.43 nM
- EC50, CreLuc assay, 100% hP [3]: 23.1 nM
Binder: Y[Aib]EGTFTSDYSI[Aib]LEKQAQ[Aib]AFVQWLIK([εLys-γGlu-γGlu-γGlu-γGlu-γGlu-C18 diacid])GGPESGASLRHYYNWLTRQRY-NH2 (also: TFA salt) [Compound 60]

- EC50, CreLuc assay, 0.5% hP [1]: 0.08 nM
- EC50, CreLuc assay, 100% hP [1]: 3 nM
- EC50, CreLuc assay, 0.5% hP [2]: 0.13 nM
- EC50, CreLuc assay, 100% hP [2]: 0.89 nM
- EC50, CreLuc assay, 0.5% hP [3]: 15.2 nM
- EC50, CreLuc assay, 100% hP [3]: 74.3 nM
Binder: Y[Aib]EGTFTSDYSI[Aib]LEKQAQ[Aib]AFVQWLIK([εLys-Glu-Glu-Glu-Glu-Glu-C18 diacid])GGPESGASLRHYYNWLTRQRY-NH2 (also: TFA salt) [Compound 63]

- EC50, CreLuc assay, 0.5% hP [1]: 2.65 nM
- EC50, CreLuc assay, 100% hP [1]: 49.3 nM
- EC50, CreLuc assay, 0.5% hP [2]: 1.03 nM
- EC50, CreLuc assay, 100% hP [2]: 15.7 nM
- EC50, CreLuc assay, 0.5% hP [3]: 10.9 nM
- EC50, CreLuc assay, 100% hP [3]: 24.2 nM
Binder: Y[Aib]EGTFTSDYSI[Aib]LEKQAQ[Aib]AFVEWLIK([γGlu-γGlu-γGlu-γGlu-γGlu-γGlu-C20 diacid])GGGSEYVSLRHYYNWLTRQRY-NH2 (also: TFA salt) [Compound 65]

- EC50, CreLuc assay, 0.5% hP [1]: 0.11 nM
- EC50, CreLuc assay, 100% hP [1]: 3.95 nM
- EC50, CreLuc assay, 0.5% hP [2]: 0.36 nM
- EC50, CreLuc assay, 100% hP [2]: 0.56 nM
- EC50, CreLuc assay, 0.5% hP [3]: 6.25 nM
- EC50, CreLuc assay, 100% hP [3]: 37.6 nM
Binder: Y[Aib]EGTFTSDYSI[Aib]LEKQAQ[Aib]AFVQWLIK([εLys-γGlu-γGlu-γGlu-γGlu-γGlu-C20 diacid])GGPESGASLRHYYNWLTRQRY-NH2 (also: TFA salt) [Compound 61]

- EC50, CreLuc assay, 0.5% hP [1]: 0.1 nM
- EC50, CreLuc assay, 100% hP [1]: 1.39 nM
- EC50, CreLuc assay, 0.5% hP [2]: 0.35 nM
- EC50, CreLuc assay, 100% hP [2]: 1.56 nM
- EC50, CreLuc assay, 0.5% hP [3]: > 100 nM
- EC50, CreLuc assay, 100% hP [3]: 564 nM
B1: Compound 2 (peptide)
peptide: YXEGTFTSDYSIXLEKQAQXAFVEWLIKGGPSSGIELRHFLNHLTRQRY
modifications: Aib at 2, 13, 20; K28 side chain: C20DA-gGlu-gGlu-gGlu-gGlu-gGlu-gGlu-eLys; C-terminal NH2

- EC50, CreLuc assay, 0.5% hP [1]: 0.78 nM
- EC50, CreLuc assay, 100% hP [1]: 9.23 nM
- EC50, CreLuc assay, 0.5% hP [2]: 0.48 nM
- EC50, CreLuc assay, 100% hP [2]: 5.35 nM
- EC50, CreLuc assay, 0.5% hP [3]: 13.6 nM
- EC50, CreLuc assay, 100% hP [3]: 40.5 nM
B2: Compound 62 (peptide)
peptide: YXEGTFTSDYSIXLEKQAQXAFVEWLIKGGPRYYASLRHYYNWLTRQRY
modifications: Aib at 2, 13, 20; K28 side chain: C20DA-gGlu-gGlu-gGlu-gGlu-gGlu-gGlu-eLys; C-terminal NH2

- EC50, CreLuc assay, 0.5% hP [1]: 0.19 nM
- EC50, CreLuc assay, 100% hP [1]: 4.76 nM
- EC50, CreLuc assay, 0.5% hP [2]: 0.11 nM
- EC50, CreLuc assay, 100% hP [2]: 1.61 nM
- EC50, CreLuc assay, 0.5% hP [3]: 32.2 nM
- EC50, CreLuc assay, 100% hP [3]: 107 nM
B3: Compound 73 (peptide)
peptide: B2 peptide with R32S, Y33S, Y34P, A35E
modifications: Aib at 2, 13, 20; K28 side chain: C20DA-gGlu-gGlu-gGlu-gGlu-gGlu-gGlu-eLys; C-terminal NH2

- EC50, CreLuc assay, 0.5% hP [1]: 0.14 nM
- EC50, CreLuc assay, 100% hP [1]: 1.13 nM
- EC50, CreLuc assay, 0.5% hP [2]: 0.13 nM
- EC50, CreLuc assay, 100% hP [2]: 0.64 nM
- EC50, CreLuc assay, 0.5% hP [3]: > 100 nM
- EC50, CreLuc assay, 100% hP [3]: > 1000 nM
B4: Compound 71 (peptide)
peptide: B2 peptide with R32S, Y33S, Y34G, R46X
modifications: Aib at 2, 13, 20; hArg 46; DTyr 49; K28 side chain: C20DA-gGlu-gGlu-gGlu-gGlu-gGlu-gGlu-eLys; C-terminal NH2
